Source: patent publication US20240101670A1

Target: Human C1q (human) (UniProt P02745)
Assay: ELISA: antibody coated on the plate at the concentration shown, human C1q added at 10 ug/mL, detection with sheep anti-human C1q-HRP, OD450

Chain of Human C1q (human) (P02745 23-245 limits assumed, chain 1 of 3): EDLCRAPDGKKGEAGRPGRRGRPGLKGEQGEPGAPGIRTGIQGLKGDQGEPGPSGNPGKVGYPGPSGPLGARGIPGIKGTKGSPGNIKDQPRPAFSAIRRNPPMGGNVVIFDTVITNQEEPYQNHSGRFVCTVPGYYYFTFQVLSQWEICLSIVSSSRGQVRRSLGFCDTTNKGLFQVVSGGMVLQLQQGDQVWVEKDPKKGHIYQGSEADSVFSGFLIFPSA
Chain of Human C1q (human) (P02746 28-253 limits assumed, chain 2 of 3, further chain): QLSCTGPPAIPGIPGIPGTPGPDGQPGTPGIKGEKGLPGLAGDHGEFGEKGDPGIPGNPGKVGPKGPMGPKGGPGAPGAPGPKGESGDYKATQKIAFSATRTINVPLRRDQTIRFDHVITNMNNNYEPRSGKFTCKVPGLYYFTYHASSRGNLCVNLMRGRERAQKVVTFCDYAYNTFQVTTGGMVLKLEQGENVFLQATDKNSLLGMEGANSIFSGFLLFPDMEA
Chain of Human C1q (human) (P02747 29-245 limits assumed, chain 3 of 3, further chain): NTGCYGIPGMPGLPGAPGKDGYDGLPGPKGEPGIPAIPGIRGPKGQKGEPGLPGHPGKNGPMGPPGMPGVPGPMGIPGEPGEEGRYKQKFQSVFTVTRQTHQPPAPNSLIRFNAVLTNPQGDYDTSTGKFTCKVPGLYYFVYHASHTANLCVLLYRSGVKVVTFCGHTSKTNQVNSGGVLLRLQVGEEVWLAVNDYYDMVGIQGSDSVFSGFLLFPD

EC50 (read off the curve): 2 µg/mL
Substance: human IgG1 isotype control antibody
